Source: the RNAGym collection of RNA variant scans (doi:10.7554/elife.80360)

B1: CPEB3 Ribozyme (parent)
chain: GGGGGCCACAGCAGAAGCGUUCACGUCGCGGCCCCUGUCAGAUUCUGGUGAAUCUGCGAAUUCUGCUGU

Variants of: B1
Experiment: self-cleavage, relative activity (ratio to wild type); higher = more cleavage; co-transcriptional

Variant	self-cleavage
GGGGGCCACAGCAGAUGCGUUCACGUCGGGGCCCCUGUCAGAUUCUGGUGAAUCUGCGAAUUCUGCUGU [A16U C29G]	0.243
GGGGGCCACAGCAGAUGCGUUCACGUCGAGGCCCCUGUCAGAUUCUGGUGAAUCUGCGAAUUCUGCUGU [A16U C29A]	0.288
GGGGGCCACAGCAGAUGCGUUCACGUCGCGGCCCCUGUCAGAUUCUGGUGAAUCUGCGAGUUCUGCUGU [A16U A60G]	0.56
GGGGGCCACAGCAGAUGCGUUCACGUCGCGGCCCCUGUCAGAUUCUGGUGAAUCUGCGACUUCUGCUGU [A16U A60C]	0.227
GGGGGCCACAGCAGAUGCGUUCACGUCGCGGCCCCUGUCAGAUUCUGGUGAAUCUGCGAUUUCUGCUGU [A16U A60U]	0.251
GGGGGCCACAGCAGAGGCGUUCACGUCGCGGCCCCUGUCAGAUUCUGGUGAAUCCGCGAAUUCUGCUGU [A16G U55C]	0.534
GGGGGCCACAGCAGAUGCGUUCACGUCGCGGCUCCUGUCAGAUUCUGGUGAAUCUGCGAAUUCUGCUGU [A16U C33U]	0.865
GGGGGCCACAGCAGAUGCGUUCACGUCGCGGCACCUGUCAGAUUCUGGUGAAUCUGCGAAUUCUGCUGU [A16U C33A]	0.555
GGGGGCCACAGCAGAUGCGUUCACGUCGCGGCGCCUGUCAGAUUCUGGUGAAUCUGCGAAUUCUGCUGU [A16U C33G]	0.319
GGGGGCCACAGCAGAUGCGUUCACCUCGCGGCCCCUGUCAGAUUCUGGUGAAUCUGCGAAUUCUGCUGU [A16U G25C]	0.194
GGGGGCCACAGCAGAGGCGUUCACGUCGCGGCCCCUGUCAGAUACUGGUGAAUCUGCGAAUUCUGCUGU [A16G U44A]	0.835
GGGGGCCACAGCAGAUGCGUUCACGUCGCGGCCCCUGUAAGAUUCUGGUGAAUCUGCGAAUUCUGCUGU [A16U C39A]	0.317
GGGGGCCACAGCAGAUGCGUUCACGUCGCGGCCCCUGUUAGAUUCUGGUGAAUCUGCGAAUUCUGCUGU [A16U C39U]	0.533
GGGGGCCACAGCAGAUGCGUUCACGUCGCGGCCCCUGUGAGAUUCUGGUGAAUCUGCGAAUUCUGCUGU [A16U C39G]	0.693
GGGGGCCACAGCAGAUGCGUUCACGUCGCGGCCCCUGUCAGAUUCUGGUGAGUCUGCGAAUUCUGCUGU [A16U A52G]	0.888
GGGGGCCACAGCAGAUGCGUUCACGUCGCGGCCCCUGUCAGAUUCUGGUGAAUCUGCGAAUUCUGCUGU [A16U]	0.888
GGGGGCCACAGCAGAUGCGUUCACGUCGCGGCCCCUGUCAGGUUCUGGUGAAUCUGCGAAUUCUGCUGU [A16U A42G]	0.739
GGGGGCCACAGCAGAUGCGUUCACGUCGCGGCCCCUGUCAGCUUCUGGUGAAUCUGCGAAUUCUGCUGU [A16U A42C]	0.746
GGGGGCCACAGCAGAUACGUUCACGUCGCGGCCCCUGUCAGAUUCUGGUGAAUCUGCGAAUUCUGCUGU [A16U G17A]	0.203
GGGGGCCACAGCAGAUUCGUUCACGUCGCGGCCCCUGUCAGAUUCUGGUGAAUCUGCGAAUUCUGCUGU [A16U G17U]	0.147
GGGGGCCACAGCAGAUGCGUUCACGUCGCGGUCCCUGUCAGAUUCUGGUGAAUCUGCGAAUUCUGCUGU [A16U C32U]	0.936
GGGGGCCACAGCAGAUGCGUUCACGUCGCGGGCCCUGUCAGAUUCUGGUGAAUCUGCGAAUUCUGCUGU [A16U C32G]	0.24
GGGGGCCACAGCAGAGGCGUUCACGUCGCGGCCCCUGUCAGAUUCUGGUGAAUCUGCGAAUUCUGCCGU [A16G U67C]	0.935
GGGGGCCACAGCAGAGGCGUUCACGUCGCGGCCCCUGUCAGAUUCUGGUGAAUCUGCGAAUUCUGCGGU [A16G U67G]	0.951
GGGGGCCACAGCAGAUGCGUUCACGUCGCCGCCCCUGUCAGAUUCUGGUGAAUCUGCGAAUUCUGCUGU [A16U G30C]	0.189
GGGGGCCACAGCAGAUGCGUUCACGUCGCAGCCCCUGUCAGAUUCUGGUGAAUCUGCGAAUUCUGCUGU [A16U G30A]	0.22

Variant	self-cleavage
GGGGGCCACAGCAGAUGCAUUCACGUCGCGGCCCCUGUCAGAUUCUGGUGAAUCUGCGAAUUCUGCUGU [A16U G19A]	0.13
GGGGGCCACAGCAGAUGCUUUCACGUCGCGGCCCCUGUCAGAUUCUGGUGAAUCUGCGAAUUCUGCUGU [A16U G19U]	0.164
GGGGGCCACAGCAGAUGCGUUCACGUCGCGGCCCCUGUCAGAUUCUGGUGAAUCUGCGAAUUGUGCUGU [A16U C63G]	0.361
GGGGGCCACAGCAGAGGCGUUCACGUCGCGGCCCCUGUCAGAUUCUGGUGAAUCUGCGAAUUCUGCUGG [A16G U69G]	1.04
GGGGGCCACAGCAGAGGCGUUCACGUCGCGGCCCCUGUCAGAUUCUGGUGAAUCUGCGAAUUCUGCUGA [A16G U69A]	1.04
GGGGGCCACAGCAGAGGCGUUCACGUCGCGGCCCCUGUCAGACUCUGGUGAAUCUGCGAAUUCUGCUGU [A16G U43C]	0.791
GGGGGCCACAGCAGAGGCGUUCACGUCGCGGCCCCUGUCAGAAUCUGGUGAAUCUGCGAAUUCUGCUGU [A16G U43A]	0.784
GGGGGCCACAGCAGAGGCGUUCACGUCGCGGCCCCCGUCAGAUUCUGGUGAAUCUGCGAAUUCUGCUGU [A16G U36C]	0.724
GGGGGCCACAGCAGAUGCGUUCUCGUCGCGGCCCCUGUCAGAUUCUGGUGAAUCUGCGAAUUCUGCUGU [A16U A23U]	0.867
GGGGGCCACAGCAGAUGCGUUCGCGUCGCGGCCCCUGUCAGAUUCUGGUGAAUCUGCGAAUUCUGCUGU [A16U A23G]	0.528
GGGGGCCACAGCAGAGGCGUUCACGUCGCGGCCCCUGUCAGAUUCUGGUGAAUCUGCGAAUUCAGCUGU [A16G U64A]	0.645
GGGGGCCACAGCAGAGGCGUUCACGUCGCGGCCCCUGUCAGAUUCUGGUGAAUCUGCGAAUUCGGCUGU [A16G U64G]	0.727
GGGGGCCACAGCAGAGGCGUUCACGACGCGGCCCCUGUCAGAUUCUGGUGAAUCUGCGAAUUCUGCUGU [A16G U26A]	0.801
GGGGGCCACAGCAGAGGCGUUCACGGCGCGGCCCCUGUCAGAUUCUGGUGAAUCUGCGAAUUCUGCUGU [A16G U26G]	0.848
GGGGGCCACAGCAGAGGCGUCCACGUCGCGGCCCCUGUCAGAUUCUGGUGAAUCUGCGAAUUCUGCUGU [A16G U21C]	0.777
GGGGGCCACAGCAGAGGCGUGCACGUCGCGGCCCCUGUCAGAUUCUGGUGAAUCUGCGAAUUCUGCUGU [A16G U21G]	0.395
GGGGGCCACAGCAGAGGCGUUCACGUCGCGGCCCCUGUCAGAUUCUGGGGAAUCUGCGAAUUCUGCUGU [A16G U49G]	0.979
GGGGGCCACAGCAGAGGCGUUCACGUCGCGGCCCCUGUCAGAUUCUGGUGAAUCUGCGAAUACUGCUGU [A16G U62A]	0.712
GGGGGCCACAGCAGAGGCGUUCACGUCGCGGCCCCUGUCAGAUUCUGGUGAAUCUGCGAAUCCUGCUGU [A16G U62C]	0.788
GGGGGCCACAGCAGAUGCGUUCACGUCGCGGCCGCUGUCAGAUUCUGGUGAAUCUGCGAAUUCUGCUGU [A16U C34G]	0.353
GGGGGCCACAGCAGAUGCGUUCACGUCGCGGCCACUGUCAGAUUCUGGUGAAUCUGCGAAUUCUGCUGU [A16U C34A]	0.4
GGGGGCCACAGCAGAUGCGUUCACGUCGCGGCCUCUGUCAGAUUCUGGUGAAUCUGCGAAUUCUGCUGU [A16U C34U]	0.892
GGGGGCCACAGCAGAUGCGUUCACGUCGCGGCCCCUGUCAGAUUAUGGUGAAUCUGCGAAUUCUGCUGU [A16U C45A]	0.842
GGGGGCCACAGCAGAUGCGUUCACGUCGCGGCCCCUGUCAGAUUCUGGUGAAUCUGCGUAUUCUGCUGU [A16U A59U]	0.381
GGGGGCCACAGCAGAUGCGUUCACGUCGCGGCCCUUGUCAGAUUCUGGUGAAUCUGCGAAUUCUGCUGU [A16U C35U]	0.768
GGGGGCCACAGCAGAUGCGUUCACGUCGCGGCCCGUGUCAGAUUCUGGUGAAUCUGCGAAUUCUGCUGU [A16U C35G]	0.213

Variant	self-cleavage
GGGGGCCACAGCAGAUGCGUUCACGUCGCGGCCCAUGUCAGAUUCUGGUGAAUCUGCGAAUUCUGCUGU [A16U C35A]	0.159
GGGGGCCACAGCAGAUGCGUUCACGUCGCGGCCCCUGUCGGAUUCUGGUGAAUCUGCGAAUUCUGCUGU [A16U A40G]	0.754
GGGGGCCACAGCAGAGGCGUUCACGUCGCGGCCCCUGCCAGAUUCUGGUGAAUCUGCGAAUUCUGCUGU [A16G U38C]	0.665
GGGGGCCACAGCAGAGGCGUUCACGUCGCGGCCCCUGACAGAUUCUGGUGAAUCUGCGAAUUCUGCUGU [A16G U38A]	0.767
GGGGGCCACAGCAGAUGCGUUCACGUCGCGGCCCCUGUCAGAUUCUGGUGGAUCUGCGAAUUCUGCUGU [A16U A51G]	0.841
GGGGGCCACAGCAGAUGCGUUCACGUCGCGGCCCCUGUCAGAUUCUGGUGUAUCUGCGAAUUCUGCUGU [A16U A51U]	0.853
GGGGGCCACAGCAGAGGCGUUCACGUCGCGGCCCCUGUCAGAUUCUGGUGAACCUGCGAAUUCUGCUGU [A16G U53C]	0.622
GGGGGCCACAGCAGAUGCGUUCACGUCUCGGCCCCUGUCAGAUUCUGGUGAAUCUGCGAAUUCUGCUGU [A16U G28U]	0.131
GGGGGCCACAGCAGAUGCGUUCACGUCACGGCCCCUGUCAGAUUCUGGUGAAUCUGCGAAUUCUGCUGU [A16U G28A]	0.0797
GGGGGCCACAGCAGAUGCGUUCACGUCCCGGCCCCUGUCAGAUUCUGGUGAAUCUGCGAAUUCUGCUGU [A16U G28C]	0.166
GGGGGCCACAGCAGAGGCGUUCACGUCGCGGCCCCUGUCAGAUUCUGGUGAAUCUGCGAAAUCUGCUGU [A16G U61A]	0.833
GGGGGCCACAGCAGAGGCGUUCACGUCGCGGCCCCUGUCAGAUUCUGGUGAAUCUGCGAAGUCUGCUGU [A16G U61G]	0.732
GGGGGCCACAGCAGAGGCGUUCACGUCGCGGCCCCUGUCAGAUUCUGGUGAAUCUGCGAACUCUGCUGU [A16G U61C]	0.951
GGGGGCCACAGCAGAGGCGUUCACGUCGCGGCCCCUGUCAGAUUCGGGUGAAUCUGCGAAUUCUGCUGU [A16G U46G]	0.969
GGGGGCCACAGCAGAGGCGUUCACGUCGCGGCCCCUGUCAGAUUCCGGUGAAUCUGCGAAUUCUGCUGU [A16G U46C]	0.728
GGGGGCCACAGCAGAUGCGUUCAAGUCGCGGCCCCUGUCAGAUUCUGGUGAAUCUGCGAAUUCUGCUGU [A16U C24A]	0.23
GGGGGCCACAGCAGAUGCGUUAACGUCGCGGCCCCUGUCAGAUUCUGGUGAAUCUGCGAAUUCUGCUGU [A16U C22A]	0.12
GGGGGCCACAGCAGAUGCGUUCACGUCGCGGCCCCUGUCAGAUUCUGGUGAAUCUGCGAAUUCUGUUGU [A16U C66U]	0.785
GGGGGCCACAGCAGAUGCGUUCACGUCGCGGCCCCUGUCAGAUUCUGGUGAAUCUGCGAAUUCUGAUGU [A16U C66A]	0.427
GGGGGCCACAGCAGAUGCGUUCACGUCGCGGCCCCUGUCAGAUUCUGGUGAAUCUGCGAAUUCUGGUGU [A16U C66G]	0.356
GGGGGCCACAGCAGAUGCGUUCACGUCGCGGCCCCUGUCAGAUUCUGGUGAAUCUGGGAAUUCUGCUGU [A16U C57G]	0.246
GGGGGCCACAGCAGAUGCGUUCACGUCGCGGCCCCUGUCAGAUUCUGGUGAAUCUGUGAAUUCUGCUGU [A16U C57U]	0.196
GGGGGCCACAGCAGAUGAGUUCACGUCGCGGCCCCUGUCAGAUUCUGGUGAAUCUGCGAAUUCUGCUGU [A16U C18A]	0.0736
GGGGGCCACAGCAGAGGCGAUCACGUCGCGGCCCCUGUCAGAUUCUGGUGAAUCUGCGAAUUCUGCUGU [A16G U20A]	0.129
GGGGGCCACAGCAGAGGCGCUCACGUCGCGGCCCCUGUCAGAUUCUGGUGAAUCUGCGAAUUCUGCUGU [A16G U20C]	0.159
GGGGGCCACAGCAGAGGCGGUCACGUCGCGGCCCCUGUCAGAUUCUGGUGAAUCUGCGAAUUCUGCUGU [A16G U20G]	0.155
